Data from US20230357323A1 (University of Washington, published 2023).

T1: human IL-23R (hIL-23R), custom construct with C-terminal avi and his tags, biotinylated (human, UniProt Q5VWK5 24-355, limits assumed, enzymatically biotinylated via the avi-tag)
T1 construct: immobilized on streptavidin tips in BLI, labeled target in FACS; also called human IL-23 receptor
T1 sequence (looked up): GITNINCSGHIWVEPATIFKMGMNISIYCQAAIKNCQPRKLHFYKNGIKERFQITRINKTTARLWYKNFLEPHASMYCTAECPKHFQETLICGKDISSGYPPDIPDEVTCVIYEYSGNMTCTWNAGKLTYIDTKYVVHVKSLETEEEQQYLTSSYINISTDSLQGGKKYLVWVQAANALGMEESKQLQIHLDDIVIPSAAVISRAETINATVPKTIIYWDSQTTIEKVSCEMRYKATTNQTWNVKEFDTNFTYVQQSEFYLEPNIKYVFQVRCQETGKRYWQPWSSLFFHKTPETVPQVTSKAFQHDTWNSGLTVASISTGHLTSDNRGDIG


Molecular target: T1, human IL-23R (hIL-23R), custom …
Assay: yeast display FACS, SIF incubation then labeled hIL-23R, 5-7 rounds
Protocol: Yeast libraries were first incubated in SIF at 30C, then washed thoroughly and incubated with labeled hIL-23R, and cells retaining the highest binding signal (top 1-5%) were collected by FACS. Two rounds of selection were performed for each library, and the SIF incubation time and/or concentration of proteases were increased from first to second round. […] Indeed in several libraries we saw a large population of Myc-negative, binding-positive cells. In parallel, we performed two rounds of selection for binding to hIL-23R only, without pre-incubation in SIF. […] Best mutations were included in combinatorial libraries, sorted as above for 5-7 rounds after which individual clones were sequenced. Variants present in the final sorts were expressed in E. coli and characterized (SEQ ID NOS: 70-74 and 153-164).
(§1) Yeast strain EBY100 was transformed with each library and vector by electroporation and grow in minimal media selective for the yeast strain (-ura) and the transforming plasmid (-trp).²⁷ Expression was induced with 2% galactose. Surface expression was detected with anti-Myc-FITC (Immunology Consultants Laboratory) conjugate, and binding to biotinylated IL-23R was detected with streptavidin-PE (Invitrogen).
SIF SSM and combinatorial libraries were prepared as follows: after 16-24 hours induction, yeast were spun down, washed with PBSF, resuspended in SIF (recipe described below) at an OD of 2.0, and incubated at 30° C. shaking for 30-90 minutes as noted. After SIF digest, cells were spun down and washed 4 times with 800 uL PBSF, manually aspirating the supernatant each time to ensure complete washing to remove proteases. SIF-treated cells were then treated with target protein as described above.

Row | binding result | Binder
1 | binds | rA11dslf02E (designed binder) PEPEQFLTELCKKYYEGKLSQPEAVEEIRKYARKWGLEAWKLIWYFMQCVKRDI
2 | binds | rA11dslf02A (designed binder) MEPEKFLKELCKAYYEGKLSQQEAVEEIRSYAMKWGLEAWMLIWYFMQCVKRDI
3 | binds | rA11dslf02C (designed binder) PEPEKFLSELCKAYYEGKLSQIEAVEEIRSYARSWGLEAWKLIWYFMQCVKRDI
4 | binds | rA11dslf02D (designed binder) PEPEKFLAELCKAYYEGKLSQPEAVEEIRSYARKWGLEAWKLVWYFMLCVKRDI
5 | binds | rA11dslf02B (designed binder) MEPEEFLLELCKAYYEGKLSQIEAVEEIRHYARSFGLEAWQLIWYFMQCVKRDI

Molecular target: T1, human IL-23R (hIL-23R), custom …
Assay: biolayer interferometry titration, biotinylated hIL-23R immobilised on streptavidin tips, 1:1 fit
Protocol: Variants were first screened for relative binding to hIL-23R with biolayer interferometry (BLI). hIL-23R was immobilized on the BLI sensor tips and binding to each variant in solution at a constant concentration (50 nM) was measured to qualitatively determine relative performance of the variants. For the best-performing variants, binding constants (KD, including kₒₙ, and koff) were quantitatively determined with BLI titration experiments in triplicate.
Qualitative and quantitative assessment of binding affinity was performed using biolayer interferometry (ForteBio Octet™ […] and associated software for analysis). Enzymatically biotinylated target protein (30 nM) was immobilized on streptavidin-coated sensor tips, then sequentially dipped in wells with: buffer only (baseline), inhibitor in solution (association), and buffer only (dissociation). Kinetic constants were determined from the mathematical fit of a 1:1 binding model.

Row | Binder | Kd | koff | kon
6 | A03 (designed binder) MEEEKYVRELVKKYYEGKLSQPEAVEEIRKYARKKGLEAWKLIWAFMQLVKRDI | 0.25 nM | 0.00024 s⁻¹ | 980000 M⁻¹ s⁻¹
7 | A03dslf04 (designed binder, E. coli, purified) MEEEKCVRELCKKYYEGKLSQPEAVEEIRKCARKKGLEAWKLIWAFMQCVKRDIHHHHHH | 0.13 nM | 0.00034 s⁻¹ | 2.6e+06 M⁻¹ s⁻¹
8 | A08dslf03 (designed binder, E. coli, purified) MEEEKYVRELCKKYYEKKLSQPEAVEEIRKYARKKGLEAWKLVWAFMECVKRNIHHHHHH | 0.14 nM | 0.0002 s⁻¹ | 1.5e+06 M⁻¹ s⁻¹
9 | B03 (designed binder) NLWQIFYILNTIHKRTGDPTAKKLPKALREAMKKGDEKAMKELAKKALKYIRS | 0.14 nM | 5.6e-05 s⁻¹ | 400000 M⁻¹ s⁻¹

Continued, values first:

Row | Kd | koff | kon | Binder
10 | 0.37 nM | 0.00028 s⁻¹ | 770000 M⁻¹ s⁻¹ | A08 (designed binder) MEEEKYVRELVKKYYEKKLSQPEAVEEIRKYARKKGLEAWKLVWAFMELVKRNI
11 | 0.46 nM | 0.00044 s⁻¹ | 960000 M⁻¹ s⁻¹ | A05dslf01 (designed binder, E. coli, purified) MEEEKCVREQCKKYYEKKLSQPEAVEIIRKCARKKGLEAWKLIWAFMQCVKRDIHHHHHH
12 | 0.32 nM | 0.00011 s⁻¹ | 350000 M⁻¹ s⁻¹ | B06 (designed binder) NLWVIFYLLNTIHKRTGDPTAKKLIKALDEAMKKGDEKATKELAKKALKYIRS

Molecular target: T1, human IL-23R (hIL-23R), custom …
Assay: yeast display FACS, combinatorial library
Protocol: To further enhance affinity, we incorporated mutations previously shown to enhance binding in a combinatorial library that was then sorted for binding hIL-23R to convergence in 6 rounds. The final selection pools were plated on solid media, and individual clones sequenced. 26 unique combinatorial variants appearing in the final selection pool (SEQ ID NOS: 11-24 and 111-122) were selected for expression in E. coli and further biophysical characterization.
as §1
Yeast were then washed with PBSF and incubated for 2-5 minutes with stain solution (1:100 each anti-Myc-FITC and streptavidin-PE), washed, and resuspended for analysis and selection by FACS. FACS consecutive gates were set as follows: (1) cell granularity and size, selecting for yeast cells (BSC vs. FSC); (2) cell morphology, selecting singlets (FSC-height vs. FSC-width); (3) expression, selecting expressors by proxy of the Myc-tag (FITC fluorescence histogram); and (4) binding signal, selecting the top 1-5% relative to total population (PE vs. FITC).

Row | Binder | binding result
13 | A06 (designed binder) MEPEKYVRELVKKYYEKKLSQPEAVEEIRKYARKKGLEAWMLVWHFMQLVKRDI | binds
14 | A11 (designed binder) MEEEKYVRELVKKYYEGKLSHQEAVVEIRKYARKKGLEAWKLVWMFMQLVKRNI | binds
15 | A02 (designed binder) MEEEKYLRELVKKYYEQKLSHQEAVEIIRKYARKKGLEAWKLVWAFMQLVKRDI | binds
16 | A07 (designed binder) MEEEKYLRELVKKYYEKKLSQPEAVEIIRKYARKKGLEAWKLVWAFMQLVKRDI | binds
17 | A13 (designed binder) MEPEKYVREKVKKYYEGKLSQPEAVEEIRKYARKKGLEAWKLIWHFMQLVKRDI | binds
18 | A04 (designed binder) MEEEKYVRELVKKYYEGKLSHPEAVEEIRKYARKKGLEAWKLVWAFMQLVKRDI | binds
19 | A05 (designed binder) MEEEKYVREQVKKYYEKKLSQPEAVEIIRKYARKKGLEAWKLIWAFMQLVKRDI | binds
20 | A12 (designed binder) MEPEKYVRELVKKYYEQKLSQQEAVEIIRKYARKKGLEAWMLVWAFMQLVKRDI | binds
21 | B10 (designed binder) NLWVIFYVLNTIIKRTGDPTAKKLVKALQEAMKKWDEKATKELAKKATKYIRS | binds
22 | B11 (designed binder) NLWIIFYQLNTIIKRTGDPTAKKLIKALQEANKKWDEKALKELAKKATKYIRS | binds
23 | B04 (designed binder) NLWQIFYLLNTIIKRTGDPTAKKLKKALREALKKGDEKAVKELAKKAMKYIRS | binds
24 | B05 (designed binder) NLWMIFYLLNTIFKRTGDPTAKKLKKALNEAMKKGDEKAMKELAKKATKYIRS | binds
25 | B12 (designed binder) NLWQIFYVLNTIYKRTGDPTAKKLPKALREAMKKNDEKAIKELAKKAMKYIRS | binds
26 | B01 (designed binder) NLWMIFYLLNTIIKRTGDPTAKKLLKALQEALKKYDEKAIKELAKKAMKYIRS | binds

Now from value to binder:

Row | binding result | Binder
27 | binds | A01 (designed binder) MEPEKYLREKVKKYYEGKLSQPEAVEEIRKYARKKGLEAWKLVWYFMELVKRDI
28 | binds | A10 (designed binder) MEEEKYLREQVKKYYEGKLSVVEAVEEVRKYARKKGLEAWKLIWAFMQLVKRDI
29 | binds | A14 (designed binder) MEEEKYLRELVKKYYEQKLSQPEAVEIVRKYARKKGLEAWKLIWAFMELVKRYI
30 | binds | A09 (designed binder) MEEEKYLRELVKKYYEQKLSQPEAVEIIRKYARKKGEEAWYLIWMFMELVKRDI
31 | binds | B02 (designed binder) NLWQIFYILNTIIKRTGDPTAKKLKKALREATKKGDEKAMKELAKKAMKYIRS
32 | binds | B07 (designed binder) NLWQIFYMLNTIFKRTGDPTAKKLLKALREATKKGDEKAMKELAKKATKYIRS
33 | binds | B09 (designed binder) NLWQIFYVLNTIYKRTGDPTAKKLPKALREALKKNDEKATKELAKKAMKYIRS
